Like-named read-outs stand apart in the source and are kept apart here. Each block holds one compound with its values, some of them ahead of it.
What was measured:
Gβ1γ2 = Gβ1γ2 (UniProt P54311+P63212); experiment: Competition phage ELISA: inhibition of SIGK-phage binding to immobilized biotinylated Gβ1γ2; design: made in house; host or cells: Sf9 insect cells (baculovirus; co-expressed with BirA and (His)6-Gαi1, from which βγ was eluted); species or system rat
Protocol: Phage ELISA assays used to assess peptide binding to wild-type and mutant b-βγ were performed according to standard methods (Smrcka and Scott (2002) Methods Enzymol. 344:557-76). Briefly, 1 μg streptavidin was immobilized in the well of a […] overnight at 4° C. The wells were blocked with 100 μL of 2% bovine serum albumin (BSA) in Tris-buffered saline (TBS) for 1 hour at 4° C. followed by three washes of IX TBS/0.5% TWEEN®. […] The wells were washed, followed by the addition of IxIO^6 to IxIO^10 phage particles and incubated at 4° C. for 3 hours. The wells were then washed six times with TBS/0.5% TWEEN® followed by addition of 40 μL of 1:5000 dilution of anti-M13 antibody (Pharmacia, Uppsala, Sweden) and incubated at room temperature for 1 hour. The wells were washed, followed by the addition of 40 μL of (2,2′-Azino-bis (3-ethylbenzthiazoline)-6-sulfonic acid (ABTS) and the colorimetric reaction was monitored at 405 nm. Nonspecific binding was subtracted for each reading.
A phage ELISA assay was used to determine whether small molecules identified in the computational screen could interact with the Gβy protein interaction surface. […] The screen was based on a reduction in the optical density (OD) of wells containing Gβγ subunits and phage. […] Three background wells contained no βy subunits.
As disclosed herein, biotinylated Gβy subunits were immobilized on the surface of a 96-well plate coated with streptavidin, phage displaying Gβγ-binding peptides were subsequently added and binding in the presence and absence of test compounds detected with an anti-phage antibody.
The phage ELISA assay was used to rapidly screen the ability of compounds to bind to the protein interaction “hot spot” based on the method of Scott et. al (Scott et al., 2001). This assay is performed in the presence of detergent (0.5% Tween) to eliminate non-specific compound aggregation artifacts.
Compounds/DMSO and 0.1×10^10 phage were added simultaneously and subsequently incubated for 1 h at room temperature. Plates were then washed with 1× Tris-buffered saline/0.5% Tween 20 and incubated with anti-M13, HRP-conjugated antibody (Amersham, Chalfont St. Giles, Buckinghamshire, UK). Phage binding was determined by monitoring A405 upon addition of 2,2′-azino-bis(3-ethylbenzothiazoline-6-sulfonic acid) (Sigma Aldrich).

Gβ1γ2 (Gβ1 mutants) [1] = target: T1, Gβ1γ2 (Gβ1 mutants) (UniProt P54311+P63212, D246S); experiment: Phage ELISA: binding of peptide-displaying phage to wild-type or alanine-substituted b-βγ; design: species or system rat; settings: Gβ1 Asp246Ser; mean ± SD
T1 construct: made in house; host or cells: Sf9 insect cells (baculovirus), partially purified via (His)6-Gαi1 on Ni-NTA
Description: (§1) Wild-type Gβ1 and Gp1 mutants were made in the baculovirus vector PDW464 which encodes a biotinylation site at a lysine upstream of the amino terminus of Gβ1 (Goubaeva, et al. (2003) supra). Mutants were generated by overlap extension PCR using standard protocols. The wild-type and mutant Gβ1 constructs consisted of a 20 amino acid biotin acceptor peptide (BAP) sequence fused in-frame with the amino-terminus of rat Gβ1 subunit. When coexpressed with biotin holoenzyme synthetase (BirA) in Sf9 cells, the Gβ1 subunit becomes covalently biotinylated in vivo at the specific lysine acceptor residue in the BAP. Using this approach, 1-2 mg protein of purified protein can be obtained per liter of Sf9 insect cells. As 45 ng of protein is used in the phage ELISA assay, a single purification is sufficient for 10,000 to 30,000 binding assays.
(§2) Phage ELISA assays used to assess peptide binding to wild-type and mutant b-βγ were performed according to standard methods (Smrcka and Scott (2002) Methods Enzymol. 344:557-76). Briefly, 1 μg streptavidin was immobilized in the well of a […] overnight at 4° C. The wells were blocked with 100 μL of 2% bovine serum albumin (BSA) in Tris-buffered saline (TBS) for 1 hour at 4° C. followed by three washes of IX TBS/0.5% TWEEN®. Forty μL of 25 nM bGβ1γ2 in TBS/0.5% TWEEN® was added to each well and incubated at 4° C. for 1.5 hour. The wells were washed, followed by the addition of IxIO^6 to IxIO^10 phage particles and incubated at 4° C. for 3 hours. The wells were then washed six times with TBS/0.5% TWEEN® followed by addition of 40 μL of 1:5000 dilution of anti-M13 antibody (Pharmacia, Uppsala, Sweden) and incubated at room temperature for 1 hour. The wells were washed, followed by the addition of 40 μL of (2,2′-Azino-bis (3-ethylbenzthiazoline)-6-sulfonic acid (ABTS) and the colorimetric reaction was monitored at 405 nm. Nonspecific binding was subtracted for each reading.
(§3) The nine peptides were selected to represent the different consensus groups of peptides previously identified (See Scott et al. (2001) supra; Table 15) and to compare binding characteristics within and between consensus groups. […] As disclosed herein, the binding signal obtained in the ELISA assay was correlated to a loss in affinity by comparing the results to behavior of the peptide in a solution based assay. […] For the purposes of present disclosure, any substitution that decreased the binding to less than 20% of the wild-type binding was considered to be a critical binding contact for that peptide.

Gβ1γ2 (Gβ1 mutants) [2] = target: T2, Gβ1γ2 (Gβ1 mutants) (UniProt P54311+P63212, K57A); experiment: as above; design: species or system rat; settings: Gβ1 Lys57Ala; mean ± SD
T2 construct: made in house; host or cells: Sf9 insect cells (baculovirus), partially purified via (His)6-Gαi1 on Ni-NTA
Description: as §1, §2, §3

Gβ1γ2 (Gβ1 mutants) [3] = target: T3, Gβ1γ2 (Gβ1 mutants) (UniProt P54311+P63212, H311A); experiment: as above; design: species or system rat; settings: Gβ1 His311Ala; mean ± SD
T3 construct: made in house; host or cells: Sf9 insect cells (baculovirus), partially purified via (His)6-Gαi1 on Ni-NTA
Description: as §1, §2, §3

Gβ1γ2 (Gβ1 mutants) [4] = target: T4, Gβ1γ2 (Gβ1 mutants) (UniProt P54311+P63212, L117A); experiment: as above; design: species or system rat; settings: Gβ1 Leu117Ala; mean ± SD
T4 construct: made in house; host or cells: Sf9 insect cells (baculovirus), partially purified via (His)6-Gαi1 on Ni-NTA
Description: as §1, §2, §3

Gβ1γ2 (Gβ1 mutants) [5] = target: T5, Gβ1γ2 (Gβ1 mutants) (UniProt P54311+P63212, Y59A); experiment: as above; design: species or system rat; settings: Gβ1 Tyr59Ala; mean ± SD
T5 construct: made in house; host or cells: Sf9 insect cells (baculovirus), partially purified via (His)6-Gαi1 on Ni-NTA
Description: as §1, §2, §3

Gβ1γ2 (Gβ1 mutants) [6] = target: T6, Gβ1γ2 (Gβ1 mutants) (UniProt P54311+P63212, D186A); experiment: as above; design: species or system rat; settings: Gβ1 Asp186Ala; mean ± SD
T6 construct: made in house; host or cells: Sf9 insect cells (baculovirus), partially purified via (His)6-Gαi1 on Ni-NTA
Description: as §1, §2, §3

Gβ1γ2 (Gβ1 mutants) [7] = target: T7, Gβ1γ2 (Gβ1 mutants) (UniProt P54311+P63212, M101A); experiment: as above; design: species or system rat; settings: Gβ1 Met101Ala; mean ± SD
T7 construct: made in house; host or cells: Sf9 insect cells (baculovirus), partially purified via (His)6-Gαi1 on Ni-NTA
Description: as §1, §2, §3

Gβ1γ2 (Gβ1 mutants) [8] = target: T8, Gβ1γ2 (Gβ1 mutants) (UniProt P54311+P63212, Y145A); experiment: as above; design: species or system rat; settings: Gβ1 Tyr145Ala; mean ± SD
T8 construct: made in house; host or cells: Sf9 insect cells (baculovirus), partially purified via (His)6-Gαi1 on Ni-NTA
Description: as §1, §2, §3

Gβ1γ2 (Gβ1 mutants) [9] = target: T9, Gβ1γ2 (Gβ1 mutants) (UniProt P54311+P63212, R314A); experiment: as above; design: species or system rat; settings: Gβ1 Arg314Ala; mean ± SD
T9 construct: made in house; host or cells: Sf9 insect cells (baculovirus), partially purified via (His)6-Gαi1 on Ni-NTA
Description: as §1, §2, §3

Gβ1γ2 (Gβ1 mutants) [10] = target: T10, Gβ1γ2 (Gβ1 mutants) (UniProt P54311+P63212, M188A); experiment: as above; design: species or system rat; settings: Gβ1 Met188Ala; mean ± SD
T10 construct: made in house; host or cells: Sf9 insect cells (baculovirus), partially purified via (His)6-Gαi1 on Ni-NTA
Description: as §1, §2, §3

Gβ1γ2 (Gβ1 mutants) [11] = target: T11, Gβ1γ2 (Gβ1 mutants) (UniProt P54311+P63212, N230A); experiment: as above; design: species or system rat; settings: Gβ1 Asn230Ala; mean ± SD
T11 construct: made in house; host or cells: Sf9 insect cells (baculovirus), partially purified via (His)6-Gαi1 on Ni-NTA
Description: as §1, §2, §3

Gβ1γ2 (Gβ1 mutants) [12] = target: T12, Gβ1γ2 (Gβ1 mutants) (UniProt P54311+P63212, W332A); experiment: as above; design: species or system rat; settings: Gβ1 Trp332Ala; mean ± SD
T12 construct: made in house; host or cells: Sf9 insect cells (baculovirus), partially purified via (His)6-Gαi1 on Ni-NTA
Description: as §1, §2, §3

Gβ1γ2 (Gβ1 mutants) [13] = target: T13, Gβ1γ2 (Gβ1 mutants) (UniProt P54311+P63212, W99A); experiment: as above; design: species or system rat; settings: Gβ1 Trp99Ala; mean ± SD
T13 construct: made in house; host or cells: Sf9 insect cells (baculovirus), partially purified via (His)6-Gαi1 on Ni-NTA
Description: as §1, §2, §3

Compound: Nc1ccc(Nc2cc(S(=O)(=O)O)c(N)c3c2C(=O)c2ccccc2C3=O)cc1 [drawing 51]
IC50 (Gβ1γ2; Table 2, read-out: Elisa IC50): 12 µM

Compound: Nc1cccc(Nc2cc(S(=O)(=O)O)c(N)c3c2C(=O)c2ccccc2C3=O)c1 [drawing 52]
IC50 (Gβ1γ2; Table 2, read-out: Elisa IC50): 19 µM

Compound: Nc1ccc(-c2ccc(Nc3cc(S(=O)(=O)O)c(N)c4c3C(=O)c3ccccc3C4=O)cc2)c(S(=O)(=O)O)c1 [drawing 54]
IC50 (Gβ1γ2; Table 2, read-out: Elisa IC50): 18 µM

Compound: O=C(O)C1CCCCC1c1c2ccc(=O)c(O)c-2oc2c(O)c(O)ccc12 (stereo not shown) [drawing 103]
IC50 (Gβ1γ2; SIGK IC50, Table 6): 0.2 µM

Compound: O=C(O)c1cccc2cccc(-c3c4ccc(=O)c(O)c-4oc4c(O)c(O)ccc34)c12 [drawing 108]
IC50 (Gβ1γ2; Table 6): 0.15 µM

The next lines start with the values.

% of Wild-Type Signal (Gβ1γ2 (Gβ1 mutants) [1]): 0.6 ± 2.5% | % of Wild-Type Signal (Gβ1γ2 (Gβ1 mutants) [2]): −4.5 ± 6.2% | % of Wild-Type Signal (Gβ1γ2 (Gβ1 mutants) [3]): 23.6 ± 46.0% | % of Wild-Type Signal (Gβ1γ2 (Gβ1 mutants) [4]): 2.1 ± 5.5% | % of Wild-Type Signal (Gβ1γ2 (Gβ1 mutants) [5]): −2.0 ± 9.5% | % of Wild-Type Signal (Gβ1γ2 (Gβ1 mutants) [6]): 2.4 ± 3.5% | % of Wild-Type Signal (Gβ1γ2 (Gβ1 mutants) [7]): 6.0 ± 5.1% | % of Wild-Type Signal (Gβ1γ2 (Gβ1 mutants) [8]): 0.1 ± 6.5% | % of Wild-Type Signal (Gβ1γ2 (Gβ1 mutants) [9]): 2.4 ± 3.9% | % of Wild-Type Signal (Gβ1γ2 (Gβ1 mutants) [10]): 8.5 ± 5.2% | % of Wild-Type Signal (Gβ1γ2 (Gβ1 mutants) [11]): 27.6 ± 19.1% | % of Wild-Type Signal (Gβ1γ2 (Gβ1 mutants) [12]): −1.5 ± 3.6% | % of Wild-Type Signal (Gβ1γ2 (Gβ1 mutants) [13]): 32.6 ± 26.3%
Compound: LCSKAYLLLGQTC [Compound 2F]

% of Wild-Type Signal (Gβ1γ2 (Gβ1 mutants) [1]): 60.8 ± 14.4% | % of Wild-Type Signal (Gβ1γ2 (Gβ1 mutants) [2]): 14.2 ± 9.8% | % of Wild-Type Signal (Gβ1γ2 (Gβ1 mutants) [3]): 51.6 ± 13.2% | % of Wild-Type Signal (Gβ1γ2 (Gβ1 mutants) [4]): 24.7 ± 12.5% | % of Wild-Type Signal (Gβ1γ2 (Gβ1 mutants) [5]): 4.0 ± 6.2% | % of Wild-Type Signal (Gβ1γ2 (Gβ1 mutants) [6]): 124.9 ± 29.1% | % of Wild-Type Signal (Gβ1γ2 (Gβ1 mutants) [7]): 23.6 ± 8.5% | % of Wild-Type Signal (Gβ1γ2 (Gβ1 mutants) [8]): 17.5 ± 7.8% | % of Wild-Type Signal (Gβ1γ2 (Gβ1 mutants) [9]): 20.8 ± 11.1% | % of Wild-Type Signal (Gβ1γ2 (Gβ1 mutants) [10]): 122.6 ± 26.2% | % of Wild-Type Signal (Gβ1γ2 (Gβ1 mutants) [11]): 74.8 ± 14.8% | % of Wild-Type Signal (Gβ1γ2 (Gβ1 mutants) [12]): 0.7 ± 2.4% | % of Wild-Type Signal (Gβ1γ2 (Gβ1 mutants) [13]): −0.8 ± 2.7%
Compound: SCARFFGTPGCT [Compound C8]
